# Test results as given in patent US20230357348A1 (AstraZeneca / MedImmune, published 2023).
# Starred links: 1 amine or outer side, 2 acyl side, 3 side chain; linkers in the order of their positions; H or OH if unused. Non-standard residues stand in square brackets, D forms with d. Groups on a side chain read outwards from the residue. No end group written: not given here. *: point of attachment. C20 diacid = O=C(O)CCCCCCCCCCCCCCCCCCC(=O)*; C18 diacid = O=C(O)CCCCCCCCCCCCCCCCC(=O)*; γGlu = O=C(O)[C@H](CCC(=O)[*:2])N[*:1]; αMeF = C[C@](N)(Cc1ccccc1)C(=O)O; AEEA = NCCOCCOCC(=O)O; Aib = CC(C)(N)C(=O)O
# B1: Peptide 485 (peptide)
# peptide: H[Aib]QGTFTSDVSK[αMeF]LDTK([AEEA-AEEA-γGlu-C20 diacid])RAQDFVQWLL[Aib]E-NH2
# modifications: N-terminus assumed
# SMILES: CC(C)C[C@H](NC(=O)[C@H](Cc1c[nH]c2ccccc12)NC(=O)[C@H](CCC(N)=O)NC(=O)[C@@H](NC(=O)[C@H](Cc1ccccc1)NC(=O)[C@H](CC(=O)O)NC(=O)[C@H](CCC(N)=O)NC(=O)[C@H](C)NC(=O)[C@H](CCCNC(=N)N)NC(=O)[C@H](CCCCNC(=O)COCCOCCNC(=O)COCCOCCNC(=O)CC[C@H](NC(=O)CCCCCCCCCCCCCCCCCCC(=O)O)C(=O)O)NC(=O)[C@@H](NC(=O)[C@H](CC(=O)O)NC(=O)[C@H](CC(C)C)NC(=O)[C@](C)(Cc1ccccc1)NC(=O)[C@H](CCCCN)NC(=O)[C@H](CO)NC(=O)[C@@H](NC(=O)[C@H](CC(=O)O)NC(=O)[C@H](CO)NC(=O)[C@@H](NC(=O)[C@H](Cc1ccccc1)NC(=O)[C@@H](NC(=O)CNC(=O)[C@H](CCC(N)=O)NC(=O)C(C)(C)NC(=O)[C@@H](N)Cc1c[nH]cn1)[C@@H](C)O)[C@@H](C)O)C(C)C)[C@@H](C)O)C(C)C)C(=O)N[C@@H](CC(C)C)C(=O)NC(C)(C)C(=O)N[C@@H](CCC(=O)O)C(N)=O
# B2: Peptide 487 (peptide)
# peptide: H[Aib]QGTFTSDVSK[αMeF]LDTK([AEEA-AEEA-γGlu-C18 diacid])RARDFVQWLL[Aib]TE-OH
# modifications: N-terminus assumed
# SMILES: CC(C)C[C@H](NC(=O)[C@H](Cc1c[nH]c2ccccc12)NC(=O)[C@H](CCC(N)=O)NC(=O)[C@@H](NC(=O)[C@H](Cc1ccccc1)NC(=O)[C@H](CC(=O)O)NC(=O)[C@H](CCCNC(=N)N)NC(=O)[C@H](C)NC(=O)[C@H](CCCNC(=N)N)NC(=O)[C@H](CCCCNC(=O)COCCOCCNC(=O)COCCOCCNC(=O)CC[C@H](NC(=O)CCCCCCCCCCCCCCCCC(=O)O)C(=O)O)NC(=O)[C@@H](NC(=O)[C@H](CC(=O)O)NC(=O)[C@H](CC(C)C)NC(=O)[C@](C)(Cc1ccccc1)NC(=O)[C@H](CCCCN)NC(=O)[C@H](CO)NC(=O)[C@@H](NC(=O)[C@H](CC(=O)O)NC(=O)[C@H](CO)NC(=O)[C@@H](NC(=O)[C@H](Cc1ccccc1)NC(=O)[C@@H](NC(=O)CNC(=O)[C@H](CCC(N)=O)NC(=O)C(C)(C)NC(=O)[C@@H](N)Cc1c[nH]cn1)[C@@H](C)O)[C@@H](C)O)C(C)C)[C@@H](C)O)C(C)C)C(=O)N[C@@H](CC(C)C)C(=O)NC(C)(C)C(=O)N[C@H](C(=O)N[C@@H](CCC(=O)O)C(=O)O)[C@@H](C)O
# B3: Peptide 484 (peptide)
# peptide: H[Aib]QGTFTSDVSK[αMeF]LDTK([AEEA-AEEA-γGlu-C20 diacid])RAQDFVQWLL[Aib]E-OH
# modifications: N-terminus assumed
# SMILES: CC(C)C[C@H](NC(=O)[C@H](Cc1c[nH]c2ccccc12)NC(=O)[C@H](CCC(N)=O)NC(=O)[C@@H](NC(=O)[C@H](Cc1ccccc1)NC(=O)[C@H](CC(=O)O)NC(=O)[C@H](CCC(N)=O)NC(=O)[C@H](C)NC(=O)[C@H](CCCNC(=N)N)NC(=O)[C@H](CCCCNC(=O)COCCOCCNC(=O)COCCOCCNC(=O)CC[C@H](NC(=O)CCCCCCCCCCCCCCCCCCC(=O)O)C(=O)O)NC(=O)[C@@H](NC(=O)[C@H](CC(=O)O)NC(=O)[C@H](CC(C)C)NC(=O)[C@](C)(Cc1ccccc1)NC(=O)[C@H](CCCCN)NC(=O)[C@H](CO)NC(=O)[C@@H](NC(=O)[C@H](CC(=O)O)NC(=O)[C@H](CO)NC(=O)[C@@H](NC(=O)[C@H](Cc1ccccc1)NC(=O)[C@@H](NC(=O)CNC(=O)[C@H](CCC(N)=O)NC(=O)C(C)(C)NC(=O)[C@@H](N)Cc1c[nH]cn1)[C@@H](C)O)[C@@H](C)O)C(C)C)[C@@H](C)O)C(C)C)C(=O)N[C@@H](CC(C)C)C(=O)NC(C)(C)C(=O)N[C@@H](CCC(=O)O)C(=O)O
# B4: Peptide 482 (peptide)
# peptide: H[Aib]QGTFTSDVSK[αMeF]LESK([AEEA-AEEA-γGlu-C18 diacid])RAQDFVQWLL[Aib]E-OH
# modifications: N-terminus assumed
# SMILES: CC(C)C[C@H](NC(=O)[C@H](Cc1c[nH]c2ccccc12)NC(=O)[C@H](CCC(N)=O)NC(=O)[C@@H](NC(=O)[C@H](Cc1ccccc1)NC(=O)[C@H](CC(=O)O)NC(=O)[C@H](CCC(N)=O)NC(=O)[C@H](C)NC(=O)[C@H](CCCNC(=N)N)NC(=O)[C@H](CCCCNC(=O)COCCOCCNC(=O)COCCOCCNC(=O)CC[C@H](NC(=O)CCCCCCCCCCCCCCCCC(=O)O)C(=O)O)NC(=O)[C@H](CO)NC(=O)[C@H](CCC(=O)O)NC(=O)[C@H](CC(C)C)NC(=O)[C@](C)(Cc1ccccc1)NC(=O)[C@H](CCCCN)NC(=O)[C@H](CO)NC(=O)[C@@H](NC(=O)[C@H](CC(=O)O)NC(=O)[C@H](CO)NC(=O)[C@@H](NC(=O)[C@H](Cc1ccccc1)NC(=O)[C@@H](NC(=O)CNC(=O)[C@H](CCC(N)=O)NC(=O)C(C)(C)NC(=O)[C@@H](N)Cc1c[nH]cn1)[C@@H](C)O)[C@@H](C)O)C(C)C)C(C)C)C(=O)N[C@@H](CC(C)C)C(=O)NC(C)(C)C(=O)N[C@@H](CCC(=O)O)C(=O)O
# B5: Peptide 486 (peptide)
# peptide: H[Aib]QGTFTSDVSK[αMeF]LDLK([AEEA-AEEA-γGlu-C20 diacid])RAQDFVRWLL[Aib]E-OH
# modifications: N-terminus assumed
# SMILES: CC(C)C[C@H](NC(=O)[C@H](CC(=O)O)NC(=O)[C@H](CC(C)C)NC(=O)[C@](C)(Cc1ccccc1)NC(=O)[C@H](CCCCN)NC(=O)[C@H](CO)NC(=O)[C@@H](NC(=O)[C@H](CC(=O)O)NC(=O)[C@H](CO)NC(=O)[C@@H](NC(=O)[C@H](Cc1ccccc1)NC(=O)[C@@H](NC(=O)CNC(=O)[C@H](CCC(N)=O)NC(=O)C(C)(C)NC(=O)[C@@H](N)Cc1c[nH]cn1)[C@@H](C)O)[C@@H](C)O)C(C)C)C(=O)N[C@@H](CCCCNC(=O)COCCOCCNC(=O)COCCOCCNC(=O)CC[C@H](NC(=O)CCCCCCCCCCCCCCCCCCC(=O)O)C(=O)O)C(=O)N[C@@H](CCCNC(=N)N)C(=O)N[C@@H](C)C(=O)N[C@@H](CCC(N)=O)C(=O)N[C@@H](CC(=O)O)C(=O)N[C@@H](Cc1ccccc1)C(=O)N[C@H](C(=O)N[C@@H](CCCNC(=N)N)C(=O)N[C@@H](Cc1c[nH]c2ccccc12)C(=O)N[C@@H](CC(C)C)C(=O)N[C@@H](CC(C)C)C(=O)NC(C)(C)C(=O)N[C@@H](CCC(=O)O)C(=O)O)C(C)C
# B6: Peptide 481 (peptide)
# peptide: H[Aib]QGTFTSDVSK[αMeF]LDTK([AEEA-AEEA-γGlu-C20 diacid])RARDFVQWLLE[Aib]K-NH2
# modifications: N-terminus assumed
# SMILES: CC(C)C[C@H](NC(=O)[C@H](Cc1c[nH]c2ccccc12)NC(=O)[C@H](CCC(N)=O)NC(=O)[C@@H](NC(=O)[C@H](Cc1ccccc1)NC(=O)[C@H](CC(=O)O)NC(=O)[C@H](CCCNC(=N)N)NC(=O)[C@H](C)NC(=O)[C@H](CCCNC(=N)N)NC(=O)[C@H](CCCCNC(=O)COCCOCCNC(=O)COCCOCCNC(=O)CC[C@H](NC(=O)CCCCCCCCCCCCCCCCCCC(=O)O)C(=O)O)NC(=O)[C@@H](NC(=O)[C@H](CC(=O)O)NC(=O)[C@H](CC(C)C)NC(=O)[C@](C)(Cc1ccccc1)NC(=O)[C@H](CCCCN)NC(=O)[C@H](CO)NC(=O)[C@@H](NC(=O)[C@H](CC(=O)O)NC(=O)[C@H](CO)NC(=O)[C@@H](NC(=O)[C@H](Cc1ccccc1)NC(=O)[C@@H](NC(=O)CNC(=O)[C@H](CCC(N)=O)NC(=O)C(C)(C)NC(=O)[C@@H](N)Cc1c[nH]cn1)[C@@H](C)O)[C@@H](C)O)C(C)C)[C@@H](C)O)C(C)C)C(=O)N[C@@H](CC(C)C)C(=O)N[C@@H](CCC(=O)O)C(=O)NC(C)(C)C(=O)N[C@@H](CCCCN)C(N)=O
# B7: Peptide 480 (peptide)
# peptide: H[Aib]QGTFTSDVSK[αMeF]LDTK([AEEA-AEEA-γGlu-C18 diacid])RARDFVQWLLE[Aib]K-NH2
# modifications: N-terminus assumed
# SMILES: CC(C)C[C@H](NC(=O)[C@H](Cc1c[nH]c2ccccc12)NC(=O)[C@H](CCC(N)=O)NC(=O)[C@@H](NC(=O)[C@H](Cc1ccccc1)NC(=O)[C@H](CC(=O)O)NC(=O)[C@H](CCCNC(=N)N)NC(=O)[C@H](C)NC(=O)[C@H](CCCNC(=N)N)NC(=O)[C@H](CCCCNC(=O)COCCOCCNC(=O)COCCOCCNC(=O)CC[C@H](NC(=O)CCCCCCCCCCCCCCCCC(=O)O)C(=O)O)NC(=O)[C@@H](NC(=O)[C@H](CC(=O)O)NC(=O)[C@H](CC(C)C)NC(=O)[C@](C)(Cc1ccccc1)NC(=O)[C@H](CCCCN)NC(=O)[C@H](CO)NC(=O)[C@@H](NC(=O)[C@H](CC(=O)O)NC(=O)[C@H](CO)NC(=O)[C@@H](NC(=O)[C@H](Cc1ccccc1)NC(=O)[C@@H](NC(=O)CNC(=O)[C@H](CCC(N)=O)NC(=O)C(C)(C)NC(=O)[C@@H](N)Cc1c[nH]cn1)[C@@H](C)O)[C@@H](C)O)C(C)C)[C@@H](C)O)C(C)C)C(=O)N[C@@H](CC(C)C)C(=O)N[C@@H](CCC(=O)O)C(=O)NC(C)(C)C(=O)N[C@@H](CCCCN)C(N)=O
# How the values were obtained:
# [1] = molecular target: human GLP-1 receptor (hGLP-1R) (human, UniProt P43220 24-463); test: cell-based or functional assay
# [2] = molecular target: human glucagon receptor (hGCGR) (human, UniProt P47871 26-477); test: cell-based or functional assay
# Chain of human glucagon receptor (hGCGR) (P47871 26-477): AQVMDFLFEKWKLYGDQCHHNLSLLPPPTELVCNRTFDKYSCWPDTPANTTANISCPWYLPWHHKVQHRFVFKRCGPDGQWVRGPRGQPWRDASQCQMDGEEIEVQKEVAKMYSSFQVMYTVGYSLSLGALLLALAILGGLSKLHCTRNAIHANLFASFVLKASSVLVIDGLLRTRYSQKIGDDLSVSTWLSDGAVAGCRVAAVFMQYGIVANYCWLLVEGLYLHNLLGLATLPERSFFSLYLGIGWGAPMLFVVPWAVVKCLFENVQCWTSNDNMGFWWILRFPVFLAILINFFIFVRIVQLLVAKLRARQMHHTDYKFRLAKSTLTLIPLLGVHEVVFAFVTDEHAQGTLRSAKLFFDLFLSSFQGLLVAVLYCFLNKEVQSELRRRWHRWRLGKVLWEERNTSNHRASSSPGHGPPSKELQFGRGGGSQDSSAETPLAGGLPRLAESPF
Binder,hGLP-1R EC50 (pM) [1],hGluc-R EC50 (pM) [2]
B1,219 pM,90.4 pM
B2,65.5 pM,164 pM
B3,339 pM,169 pM
B4,190 pM,691 pM
H[Aib]QGTFTSDVSK[αMeF]LDTK([AEEA-AEEA-γGlu-C18 diacid])RAQDFVQWLL[Aib]E-OH [Peptide 483],178 pM,169 pM
B5,420 pM,166 pM
B6,52.2 pM,350 pM
B7,12.6 pM,136 pM
